The values that follow come from paper PMC7925086.

The target in the assay is Leishmania RNA virus 1 isolate LRV1-4 major capsid protein (Leishmania RNA virus 1 (isolate LRV1-4, from Leishmania guyanensis strain M5313)). The experiment in a line: cryo-EM structure; single-particle reconstruction of purified LRV1 virus-like particles, 0.16 mg/ml, in 20 mM sodium phosphate pH 7.4, 300 mM NaCl, 5 mM beta-mercaptoethanol; icosahedral symmetry; 3.65 Å.

In general, stoichiometry N refers to a count of units in the complex or per binding partner.

In turn, “Leishmania RNA virus 1 isolate LRV1-4 major capsid protein (natural protein)” displayed a stoichiometry N of 120 copies.
